Target: T1, mouse MrgprC11, endogenous in wild-type DRG neurons (mouse)
T1 chain: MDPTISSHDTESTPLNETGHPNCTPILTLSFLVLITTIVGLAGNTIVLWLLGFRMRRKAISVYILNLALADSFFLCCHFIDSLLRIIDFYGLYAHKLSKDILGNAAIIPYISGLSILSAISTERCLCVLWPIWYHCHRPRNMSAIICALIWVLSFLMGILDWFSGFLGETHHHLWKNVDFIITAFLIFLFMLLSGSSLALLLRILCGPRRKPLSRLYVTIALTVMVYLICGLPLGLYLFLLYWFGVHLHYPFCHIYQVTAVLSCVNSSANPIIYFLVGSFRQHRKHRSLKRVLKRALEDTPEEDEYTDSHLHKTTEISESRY
Experiment: cell-based or functional assay

B1: BAM8-22 (peptide)
peptide: VGRPEWWMDYQKRYG
increased [Ca2+]i, calcium imaging of WT and Mrgpr-cluster deletion DRG neurons: 3.6 % of WT DRG neurons
